Here are results for four substances from PMC10520873, “Biochemical investigation of the tryptophan biosynthetic enzyme anthranilate phosphoribosyltransferase in plants” (The Journal of Biological Chemistry, 2023).

Holding throughout (test): purified protein
Series [1] has as its system T1, Nc1c(O)cccc1C(=O)O.
T1 construct: codon-optimized gene in pET28a, His-tagged, E. coli BL21 (DE3), Ni-NTA
Format: biochemical, Arabidopsis thaliana. As to conditions: 1 mM PR-PPi, 45 mM imidazole HCl pH 7.4, 30 °C, 3-HAA 0-0.5 mM.

The test system of series [2] is T2, Nc1ccccc1C(=O)O.
T2 construct: codon-optimized gene in pET28a, His-tagged, E. coli BL21 (DE3), Ni-NTA
Format: biochemical, Arabidopsis thaliana. As to conditions: 1 mM PR-PPi, 45 mM imidazole HCl pH 7.4, 30 °C, anthranilate 0-0.75 mM.

For series [3], the system named is T1, Nc1c(O)cccc1C(=O)O. It counts as biochemical, Juglans regia. As to conditions: 1 mM PR-PPi, 45 mM imidazole HCl pH 7.4, 30 °C, 3-HAA 0-0.5 mM.
Series [4] relates to Nc1ccccc1C(=O)O. Format: biochemical, Juglans regia. As to conditions: 1 mM PR-PPi, 45 mM imidazole HCl pH 7.4, 30 °C, anthranilate 0-0.75 mM.
For series [5], the system named is Nc1ccccc1C(=O)O. Format: biochemical, Physcomitrium patens. As to conditions: 1 mM PR-PPi, 45 mM imidazole HCl pH 7.4, 30 °C, anthranilate 0-0.75 mM.
In series [6] the test system is T1, Nc1c(O)cccc1C(=O)O. Format: biochemical, Selaginella moellendorffii. As to conditions: 1 mM PR-PPi, 45 mM imidazole HCl pH 7.4, 30 °C, 3-HAA 0-0.5 mM.
For series [7], the system named is T2, Nc1ccccc1C(=O)O. It counts as biochemical, Selaginella moellendorffii. As to conditions: 1 mM PR-PPi, 45 mM imidazole HCl pH 7.4, 30 °C, anthranilate 0-0.75 mM.

What is called Km is the substrate concentration at which the rate is half of its maximum. By kcat is commonly meant the maximal rate divided by the concentration of active sites. Broadly, the kcat/Km is the second-order rate constant that governs catalysis at low substrate concentration. In the case of AtPAT1 (Arabidopsis thaliana), in series [1], the Km came out at 19.63 ± 2.3 µM, the catalytic constant (kcat) was 0.0483 ± 0.00117 s⁻¹ and the specificity constant (kcat/Km) came to 2470 M⁻¹ s⁻¹. Besides, in series [2], the Km was found to be 20.6 ± 2.0 µM, the turnover number (kcat) came out at 0.132 ± 0.00167 s⁻¹ and the kcat/Km was 6360 M⁻¹ s⁻¹.

For JrPAT1 (Juglans regia), in series [3], the Km came out at 28.23 ± 4.2 µM, the kcat came to 0.0483 ± 0.00167 s⁻¹ and the kcat/Km was determined as 1690 M⁻¹ s⁻¹. In addition, in series [4], the Km is 38.7 ± 3.5 µM, the kcat came out at 0.055 ± 0.00167 s⁻¹ and the kcat/Km came out at 1420 M⁻¹ s⁻¹.

Turning to PpPAT1 (Physcomitrium patens), in series [5], the Km was 31.8 ± 4.4 µM, the kcat was 0.0567 ± 0.00167 s⁻¹ and the kcat/Km turned out to be 1790 M⁻¹ s⁻¹.

Consider SmPAT1 (Selaginella moellendorffii), for which, in series [6], the Km amounted to 22.66 ± 1.5 µM, the kcat worked out at 0.0533 ± 0.000833 s⁻¹ and the kcat/Km is 2360 M⁻¹ s⁻¹. In series [7], the Km amounted to 189 ± 35 µM, the kcat stood at 0.085 ± 0.005 s⁻¹ and the kcat/Km turned out to be 450 M⁻¹ s⁻¹.
